Laboratory results: patent US20250281533A1 (LG CHEM, published 2025)

B1: scFv 2447_3H02 (scFv)
scFv: EVQLLESGGGLVQPGRSLRLSCAASGFTFDDYAMHWVRQAPGKGLEWVSGISWDSGSIGYADSVKGRFTISRDNAKNSLYLQMNSLRAEDTALYYCAKDVSSGWYWYAFDIWGQGTLVTVSSGGGGSGGGGSGGGASSYELTQDPAVSVALGQTVRITCQGDILRSYYASWYQQKPGQAPVLVIYGKNNRPSGIPDRFSGSSSGNTASLTITGAQAEDEADYYCNSRDSSGNRVVFGGGTKLTVL
notes: also called #9
B2: scFv 2447_3A08 (scFv)
scFv: EVQLVQSGAEVKKPGASVKVSCKASGYTFTSYGISWVRQAPGQGLEWMGWISAYNGNTNYAQKLQGRVTMTTDTSTSTAYMELRSLRSDDTAVYYCARDRATIFGVVTPFDYWGQGTLVTVSSGGGGSGGGGSGGGASSYELTQDPAVSVALGQTVRITCQGDSIRSYSASWYQQKPGQAPRLVIYGKNNRPSGIPDRVSGSTSGNTASLTVTGAQAEDEADYYCNSRDSSGNRVVFGGGTQLTVL
B3: scFv 2447_3H08 (scFv)
scFv: EVQLLESGGGLVQPGRSLRLSCAASGFTFDDYAMHWVRQAPGKGLEWVSGISWNSGSIDYADSVKGRFTISRDNSKNTLYLQMNSLRAEDTAVYYCARDRSSGWYTGSFDYWGQGTLVTVSSGGGGSGGGGSGGGASSYELTQDPAVSVALGQTVRITCQGDSLRSYYASWYRQKPGQAPVLVIYGKNNRPSGIPDRFSGSSSGNTASLTIIGAQAEDEADYYCQSRDSSDNRVLFGGGTKVTVL
notes: also called #10
B4: scFv 2447_3A09 (scFv)
scFv: EVQLLESGGGLVQPGRSLRLSCAATGFTFDDYAMHWVRQAPGKGLEWVSGISWNSGSIGYADSVKGRFTISRDNAKNSLYLQMNSLRAEDTASYYCAKDVSSGWYWYAFDIWGQGTLVTVSSGGGGSGGGGSGGGASSYELTQDPAVSVALGQTVRITCQGDSLRSYYASWYQQKPGQAPVLVIYGKNNRPSGIPGRFSGSSSGNTASLTVTGAQAEDEADYYCNSRDSGGSVVFGGGTKLTVL
notes: also called #5
B5: positive control scFv G03 (scFv)
scFv: EVQLVQSGAEVKKPGATVKISCKVSGYTFTSYWMHWVQQAPGKGLEWIGYINPGTGYIEYNQKFKDRVTITADKSTDTAYMELSSLRSEDTAVYYCASSTAPFDYWGQGTLVTVSSGGGGSGGGGSGGGASEIVLTQSPGTLSLSPGERATLSCKASQDIKSYLSWYQQKPGQAPRLLIYYATRLADGIPDRFSGSGSGTDFTLTISRLEPEDFAVYYCLQYDESPYTFGQGTKLEIK
B6: scFv 2447_3B07 (scFv)
scFv: QVQLVESGGVVVQPGGSLRLSCAASGFTFDDYAMHWVRQAPGRGLEWVSLTSWDGGSTYYADSVKGRFTISRDNSKNSLYLQMNSLRAEDTALYYCAKDHSSGWYNGGMDVWGQGTMVTVSSGGGGSGGGGSGGGASSYELTQDPAVSVALGQTVRITCQGDSLRSYYASWYQQKPGQAPVLVIYGKNNRPSGIPDRFSGSSSGNTASLTITGAQAEDEADYYCNSRDSSGNHVVFGGGTKLTVL
B7: scFv 2447_2H08 (scFv)
scFv: EVQLVQSGAEVKKPGASVKVSCKASGYTFTNYGISWVRQAPGQGLEWMGWISAYNGNTNYAQKLQGRVTMTTDTSTSTAYMELRSLRSDDTAVYYCARDPHILTGYYRGGWFDPWGQGTTVTVSSGGGGSGGGGSGGGASSYELTQDPAVSVALGQTVTITCQGDSLRTSYAGWLQQKPGQAPVLVLYGKTSRPSGIPDRFSGSTSGNTASLTITGAQAEDEAEYFCHSRDSNDNYLEVVFGGGTKLTVL
B8: scFv 2447_3A12 (scFv)
scFv: EVQLVQSGAEVKKPGASVKVSCKASGYTFTSYGISWVRQAPGQGLEWMGWISAYNGNTNYAQKLRGRVTMTTDTSTSTAYMELRSLRSDDTAVYYCARDPHILTGYYRGGWFDPWGQGTLVTVSSGGGGSGGGGSGGGASSYELTQDPAVSVVLGQTVRITCQGDSLRSYYASWYQQKPGQAPVLVIYGKNNRPSGIPDRFSGSSSGNTASLTITGAQAEDEADYYCNSRDSSGNHRVFGGGTKLTVL
notes: also called #6
B9: scFv 2447_3A01 (scFv)
scFv: EVQLLESGGGLVQPGGSLRLSCAASGFTFDDYAMHWVRQAPGKGLEWVSGISWNSGSIVYADFVKGRFTISRDNAKNSLYLQMNSLRAEDTALYYCAKDISSGWYPGTFDYWGQGTLVTVSSGGGGSGGGGSGGGASSYELTQDPAVSVALGQTVRITCQGDSLRSYYASWYQQKPGQAPVLVIYGKNNRPSGIPDRFSGSSSGNTASLTVTGAQAEDEADYYCSSRDSSDDVVFGGGTQLTVL
B10: scFv 2447_3C08 (scFv)
scFv: EVQLLESGGGLVQPGGSLRLSCAASGFTFDDYAMHWVRQAPGKGLEWVSGISWNSGSIGYADSVKGRFTISRDNAKNSLYLQMNSLRAEDTALYYCAKDRGSGYEGNYYGMDVWGQGTLVTVSSGGGGSGGGGSGGGASSYELTQDPAVSVALGQTVRITCQGDSLRSYYASWYQQKPGQAPVLVIYGKNNRPSGIPDRFSGTTSGNTASLTITGAQAEDEADYYCNSRDSSGNHYVFGTGTKVTVL

Molecular target: T1, mucin1 (MUC1) naturally expressed on human breast cancer cell lines (human, UniProt P15941 24-1255)
T1 construct: whole, on cells; The cell line of each entry is named under assay or readout; also called MUC1 on T47D cells; MUC1 on HCC70 cells
Assay: flow cytometry (PE MFI, corrected to G03 at 380 ug/mL) on T47D cells

T1 sequence (P15941 24-1255): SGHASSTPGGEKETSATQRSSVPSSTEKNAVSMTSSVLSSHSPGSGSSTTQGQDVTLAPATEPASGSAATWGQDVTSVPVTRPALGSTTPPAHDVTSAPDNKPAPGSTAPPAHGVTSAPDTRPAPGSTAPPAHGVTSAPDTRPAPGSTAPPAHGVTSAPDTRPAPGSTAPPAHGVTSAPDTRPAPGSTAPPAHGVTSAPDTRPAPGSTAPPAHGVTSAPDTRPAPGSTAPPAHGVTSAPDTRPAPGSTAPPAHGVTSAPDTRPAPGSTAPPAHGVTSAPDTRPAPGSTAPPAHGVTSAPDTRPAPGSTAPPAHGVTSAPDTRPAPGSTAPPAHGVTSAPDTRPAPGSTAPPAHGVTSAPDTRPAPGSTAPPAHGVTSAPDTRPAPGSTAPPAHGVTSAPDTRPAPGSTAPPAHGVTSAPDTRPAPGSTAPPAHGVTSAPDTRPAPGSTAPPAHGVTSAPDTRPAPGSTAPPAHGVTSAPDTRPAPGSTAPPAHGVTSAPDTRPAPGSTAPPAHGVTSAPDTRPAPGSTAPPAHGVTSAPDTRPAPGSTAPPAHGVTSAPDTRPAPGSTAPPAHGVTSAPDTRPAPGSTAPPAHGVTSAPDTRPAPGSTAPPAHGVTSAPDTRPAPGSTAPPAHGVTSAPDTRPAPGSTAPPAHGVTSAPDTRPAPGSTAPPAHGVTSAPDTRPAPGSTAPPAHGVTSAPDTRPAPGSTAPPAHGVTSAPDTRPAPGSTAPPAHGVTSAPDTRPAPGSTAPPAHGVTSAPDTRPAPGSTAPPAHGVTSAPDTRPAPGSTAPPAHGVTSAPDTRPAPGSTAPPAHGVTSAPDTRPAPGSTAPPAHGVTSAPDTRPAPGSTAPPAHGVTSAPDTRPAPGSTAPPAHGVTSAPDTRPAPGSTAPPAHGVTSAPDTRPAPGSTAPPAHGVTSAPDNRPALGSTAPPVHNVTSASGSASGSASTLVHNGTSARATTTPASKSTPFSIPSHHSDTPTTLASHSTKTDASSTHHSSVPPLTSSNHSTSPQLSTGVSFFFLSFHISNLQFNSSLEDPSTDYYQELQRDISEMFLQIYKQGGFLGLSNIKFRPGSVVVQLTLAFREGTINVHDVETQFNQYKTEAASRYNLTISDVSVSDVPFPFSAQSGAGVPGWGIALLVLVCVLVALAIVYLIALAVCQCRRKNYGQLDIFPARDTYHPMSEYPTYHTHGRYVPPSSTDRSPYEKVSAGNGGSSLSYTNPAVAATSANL

Binder	EC50 [µg/mL]
B1	1.6
B2	3.76
B3	5.6
B4	2.2
B5	3.56
B6	3.47
B7	130
B8	0.75
B9	11.1
B10	2.04
